The values below come from paper PMC3247260, “Domain Analysis Reveals That a Deubiquitinating Enzyme USP13 Performs Non-Activating Catalysis for Lys63-Linked Polyubiquitin” (PLoS ONE, 2011).

Broadly, the Kd is the concentration at which binding is half-saturated. A higher Kd goes with weaker binding.

Changes are numbered by the printed parent chain. Names may count otherwise.

What all share (details): both partners purified
In one assay the target is T1, GST-fused Ub (UniProt P0CG48 1-76).
T1 construct: ubiquitin (Ub); cDNA inserted into pGEX-4T-3; also called GST-Ub; source: E. coli BL21, purified (glutathione agarose)
The experiment in a line: pull-down; GST-fused Ub, ISG15, SUMO1 or SUMO2 loaded on glutathione agarose, USP13 or USP13-UBA12 (~100 µM) added; 1-hr incubation, washed three times, eluted by GSH buffer; SDS-PAGE with Coomassie blue staining.

Assay [1] concerns the target T2, ubiquitin (Ub) (UniProt P0CG48 1-76).
T2 construct: ubiquitin, free monomer; only a GST-fused Ub construct is named in the methods; also called free Ub; monoUb
The experiment in a line: ITC; Ub (1 mM stock) injected into USP13-ZnF, USP5-ZnF or its mutants (50 µM), 25 injections of 8 µL; 50 mM Tris, 150 mM NaCl, pH 7.5, 1 mM DTT; 25°C. A general note: Isothermal titration calorimetry measures the heat released or taken up as one component is titrated into another.

The target in assay [2] is T2, ubiquitin (Ub). The assay is described as follows: NMR titration; 15N-labeled USP13-UBA12 or USP5-ZnF (~0.2 mM) titrated with Ub (or ISG15), 1H-15N HSQC spectra; 20 mM phosphate, 50 mM NaCl, pH 6.5.
A further assay addresses T3, linear diUb (UniProt P0CG48 1-76; P0CG48 1-76).
T3 construct: ubiquitin, first unit of the linear (head-to-tail) dimer; ubiquitin, second unit of the linear (head-to-tail) dimer; also called linear linked diUb
The assay is described as follows: ITC; USP13-UBA12 (1.25 mM stock) injected into K63-, K48-, linear diUb (0.1 mM) or monoUb (0.2 mM), 25 injections of 1.5 µL; 50 mM Tris, 150 mM NaCl, pH 7.5; 25°C.

B1: USP13 (residues 21-863) (enzyme, human, UniProt Q92995 21-863, looked up)
chain: AGDIGELLVPHMPTIRVPRSGDRVYKNECAFSYDSPNSEGGLYVCMNTFLAFGREHVERHFRKTGQSVYMHLKRHVREKVRGASGGALPKRRNSKIFLDLDTDDDLNSDDYEYEDEAKLVIFPDHYEIALPNIEELPALVTIACDAVLSSKSPYRKQDPDTWENELPVSKYANNLTQLDNGVRIPPSGWKCARCDLRENLWLNLTDGSVLCGKWFFDSSGGNGHALEHYRDMGYPLAVKLGTITPDGADVYSFQEEEPVLDPHLAKHLAHFGIDMLHMHGTENGLQDNDIKLRVSEWEVIQESGTKLKPMYGPGYTGLKNLGNSCYLSSVMQAIFSIPEFQRAYVGNLPRIFDYSPLDPTQDFNTQMTKLGHGLLSGQYSKPPVKSELIEQVMKEEHKPQQNGISPRMFKAFVSKSHPEFSSNRQQDAQEFFLHLVNLVERNRIGSENPSDVFRFLVEERIQCCQTRKVRYTERVDYLMQLPVAMEAATNKDELIAYELTRREAEANRRPLPELVRAKIPFSACLQAFSEPENVDDFWSSALQAKSAGVKTSRFASFPEYLVVQIKKFTFGLDWVPKKFDVSIDMPDLLDINHLRARGLQPGEEELPDISPPIVIPDDSKDRLMNQLIDPSDIDESSVMQLAEMGFPLEACRKAVYFTGNMGAEVAFNWIIVHMEEPDFAEPLTMPGYGGAASAGASVFGASGLDNQPPEEIVAIITSMGFQRNQAIQALRATNNNLERALDWIFSHPEFEEDSDFVIEMENNANANIISEAKPEGPRVKDGSGTYELFAFISHMGTSTMSGHYICHIKKEGRWVIYNDHKVCASERPPKDLGYMYFYRRIPS
notes: Ubiquitin-specific protease 13 (USP13, isoT3), human, residues 21-863, cloned into pET-32M; The results call it full-length USP13; the methods give residues 21-863; also called full-length USP13; source: E. coli BL21, purified (Ni-NTA agarose, size-exclusion chromatography)
For the molecule B1, in the assay with GST-fused Ub, the binding result was “binds”.

B2: USP5-ZnF R222W (domain or fragment, human, UniProt P45974 169-289, looked up)
chain: WDGEVRQVSKHAFSLKQLDNPARIPPCGWKCSKCDMRENLWLNLTDGSILCGRWYFDGSGGNNHAVEHYRETGYPLAVKLGTITPDGADVYSYDEDDMVLDPSLAEHLSHFGIDMLKMQKT
notes: USP5, human, ZnF domain, residues 169-289, point mutant in pET-M; source: E. coli BL21, purified (Ni-NTA agarose, size-exclusion chromatography)
The molecule B2 showed a Kd in the assay with ubiquitin (Ub) [1] of 9.1 µM.

B3: USP5-ZnF Y223F (domain or fragment, human, UniProt P45974 169-289, looked up)
chain: B2 chain with W54R, Y55F
notes: as for B2
In the assay with ubiquitin (Ub) [1], B3 gave a Kd of 6.4 µM.

B4: USP5-ZnF Y261F (domain or fragment, human, UniProt P45974 169-289, looked up)
chain: B2 chain with W54R, Y93F
notes: as for B2
B4 had a Kd in the assay with ubiquitin (Ub) [1] of 88 µM.

B5: USP5-ZnF R222W/Y223F (domain or fragment, human, UniProt P45974 169-289, looked up)
chain: B2 chain with Y55F
notes: as for B2
B5: the Kd with ubiquitin (Ub) [1] came out at 16 µM.

B6: USP5-ZnF R221K (domain or fragment, human, UniProt P45974 169-289, looked up)
chain: B2 chain with R53K, W54R
notes: as for B2
Turning to B6, the affinity in the assay with ubiquitin (Ub) [1], expressed as Kd, was 100 µM.

B7: ZnF domain of USP5 (USP5-ZnF, residues 169-289), wild type (domain or fragment, human, UniProt P45974 169-289, looked up)
chain: B2 chain with W54R
notes: USP5 (isopeptidase T, isoT), human, zinc finger (ZnF) domain, residues 169-289, cloned into pET-M; also called WT; source: E. coli BL21, purified (Ni-NTA agarose, size-exclusion chromatography)
With B7, binding with ubiquitin (Ub) [1] was put at a Kd of 2.3 µM.

B8: tandem UBA domains of USP13 (USP13-UBA12, residues 652-776) (domain or fragment, human, UniProt Q92995 652-776, looked up)
chain: DIDESSVMQLAEMGFPLEACRKAVYFTGNMGAEVAFNWIIVHMEEPDFAEPLTMPGYGGAASAGASVFGASGLDNQPPEEIVAIITSMGFQRNQAIQALRATNNNLERALDWIFSHPEFEEDSDF
notes: USP13, human, tandem UBA domains (UBA1 and UBA2), residues 652-776, cloned into pET-32M; 15N-labelled in the NMR titrations; source: E. coli BL21, purified (Ni-NTA agarose, size-exclusion chromatography)
For the molecule B8, the binding result in the assay with ubiquitin (Ub) [2], with linear diUb and with GST-fused Ub was “binds” throughout.
